In patent US20260184782A1 (TWIST BIOSCIENCE, published 2026):
Substitutions are numbered along the chain they refer to.

T1: recombinant human TIGIT (human, UniProt Q495A1 22-141, limits assumed)
T1 construct: recombinant human TIGIT used in Carterra SPR; also called hTIGIT
T1 sequence (looked up): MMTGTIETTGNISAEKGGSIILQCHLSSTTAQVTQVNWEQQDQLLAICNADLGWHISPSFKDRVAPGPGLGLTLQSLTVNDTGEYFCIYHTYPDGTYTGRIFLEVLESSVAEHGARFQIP

B1: TIGIT-SC211 (Fc fusion)
VHH: EVQLVESGGGLVQPGGSLRLSCAASGFSFSMYVMGWFRQAPGKEREFVAAIWRSGTLKAYADSVKGRFTISADNSKNTAYLQMNSLKPGDTAVYYCARDHRAMVAPFDYWGQGTLVTVSS
notes: VHH-Fc fusion in assay
B2: TIGIT-SC64 (Fc fusion)
VHH: EVQLVESGGGLVQPGGSLRLSCAASGFAFSNFGMGWFRQAPGKERELVSAIGWSGASTYYADSVKGRFTISADNSKNTAYLQMNSLKPEDTAVYYCARRGRTIPFDYWGQGTLVTVSS
notes: VHH-Fc fusion in assay
B3: TIGIT-SC52 (Fc fusion)
VHH: EVQLVESGGGLVQPGGSLRLSCAASGFLFDSYAMGWFRQAPGKEREFVAAISTGGGWRTYADSVKGRFTISADNSKNTAYLQMNSLKPEDTAVYYCAKRGNDNWYFDLWGQGTLVTVSS
notes: VHH-Fc fusion in assay
B4: TIGIT-SC67 (Fc fusion)
VHH: EVQLVESGGGLVQPGGSLRLSCAASGFTFDRSWMGWFRQAPGKEREWVSTIYSNGTPAYADSVKGRFTISADNSKNTAYLQMNSLKPEDTAVYYCARRGLPSYSYGMDVWGQGTLVTVSS
notes: VHH-Fc fusion in assay
B5: TIGIT-SC81 (Fc fusion)
VHH: EVQLVESGGGLVQPGGSLRLSCAASGRSFKDDAMGWFRQAPGKEREFVAAISWSGDSTHYADSVKGRFTISADNSKNTAYLQMNSLKPEDTAVYYCARWVWASGTYWIDYWGQGTLVTVSS
notes: VHH-Fc fusion in assay
B6: TIGIT-SC32 (Fc fusion)
VHH: EVQLVESGGGLVQPGGSLRLSCAASGFAFGDSWMGWFRQAPGKERELVAAIDWSGGSALYADSVKGRFTISADNSKNTALQMNSLKPEDTAVYYCAKVHSDFRAGWDVWGQGTLVTVSS
notes: VHH-Fc fusion in assay
B7: TIGIT-SC100 (Fc fusion)
VHH: EVQLVESGGGLVQPGGSLRLSCAASGRTLSDRAMGWFRQAPGKEREFVAAITDNGGSTYYADSVKGRFTISADNSKNTAYLQMNSLKPEDTAVYYCARWYSSSGDYYYMDVWGQGTLVTVSS
notes: VHH-Fc fusion in assay
B8: TIGIT-SC101 (Fc fusion)
VHH: B7 VHH with L29F, D31S, R32Y, T52D, D53W, N54S, G55D
notes: VHH-Fc fusion in assay
B9: TIGIT-SC41 (Fc fusion)
VHH: EVQLVESGGGLVQPGGSLRLSCAASGMTTIGPMGWFRQAPGKEREFVASIAWGDGNTYYADSVKGRFTISADNSKNTAYLQMNSLKPEDTAVYYCVRGGSRTLWGQGTLVTVSS
notes: VHH-Fc fusion in assay
B10: TIGIT-SC18 (Fc fusion)
VHH: EVQLVESGGGLVQPGGSLRLSCAASGFSLDYYAMGWFRQAPGKEREVVAIIDTNGDNTLYADSVKGRFTISADNSKNTAYLQMNSLKPEDTAVYYCARGRGYGDYVGAYWGQGTLVTVSS
notes: VHH-Fc fusion in assay
B11: TIGIT-SC119 (Fc fusion)
VHH: EVQLVESGGGLVQPGGSLRLSCAASGNTFSGGFMGWFRQAPGKEREWVASVLRGGYTWYADSVKGRFTISADNSKNTAYLQMNSLKPEDTAVYYCAKDGGWFDPWGQGTLVTVSS
notes: VHH-Fc fusion in assay
B12: TIGIT-SC126 (Fc fusion)
VHH: EVQLVESGGGLVQPGGSLRLSCAASGSIFSGNVMGWFRQAPGKERELVAAISNSASSTVYADSVKGRFTISADNSKNTAYLQMNSLKPEDTAVYYCARDWNLFDYWGQGTLVTVSS
notes: VHH-Fc fusion in assay
B13: TIGIT-SC127 (Fc fusion)
VHH: B12 VHH with V33A
notes: VHH-Fc fusion in assay
B14: TIGIT-SC184 (Fc fusion)
VHH: EVQLVESGGGLVQPGGSLRLSCAASGFTFSPSWMGWFRQAPGKEREWVASVLRGGYTWYADSVKGRFTISADNSKNTAYLQMNSLKPEDTAVYYCTTDRGYNWNYDWGQGTLVTVSS
notes: VHH-Fc fusion in assay
B15: TIGIT-SC49 (Fc fusion)
VHH: EVQLVESGGGLVQPGGSLRLSCAASGRTFIGYHMGWFRQAPGKEREFVAAISWTGESTLYADSVKGRFTISADNSKNTAYLQMNSLKPEDTAVYYCARDDYGDYRRYFQHWGQGTLVTVSS
notes: VHH-Fc fusion in assay
B16: TIGIT-SC8 (Fc fusion)
VHH: EVQLVESGGGLVQPGGSLRLSCAASGFAFSSYAMGWFRQAPGKEREFVARITWNGGSAYYADSVKGRFTISADNSKNTAYLQMNSLKPEDTAVYYCAAGATGWFDPWGQGTLVTVSS
notes: VHH-Fc fusion in assay
B17: TIGIT-SC151 (Fc fusion)
VHH: EVQLVESGGGLVQPGGSLRLSCAASGFPFSIYPMGWFRQAPGKEREFVAAISASGTLRAYADSVKGRFTISADNSKNTAYLQMNSLKPEDTAVYYCARSSSWVRIFDYWGQGTLVTVSS
notes: VHH-Fc fusion in assay
B18: TIGIT-SC22 (Fc fusion)
VHH: EVQLVESGGGLVQPGGSLRLSCAASGFTLENNMMGWFRQAPGKEREMVAAISWSGGSALYADSVKGRFTISADNSKNTAYLQMNSLKPEDTAVYYCARGDGYSYGNFDYWGQGTLVTVSS
notes: VHH-Fc fusion in assay
B19: TIGIT-SC212 (Fc fusion)
VHH: EVQLVESGGGLVQPGGSLRLSCAASGFLFDSYAMGWFRQAPGKEREFVAAIWRSGTLKAYADSVKGRFTISADNSKNTAYLQMNSLKPEDTAVYYCARWVGASGDYWIDYWGQGTLVTVSS
notes: VHH-Fc fusion in assay
B20: TIGIT-SC213 (Fc fusion)
VHH: B19 VHH with F27T, L28F, F29Q, D30R, S31I, Y32N
notes: VHH-Fc fusion in assay
B21: TIGIT-SC206 (Fc fusion)
VHH: EVQLVESGGGLVQPGGSLRLSCAASGFLFDSYVMGWFRQAPGKEREFVAAIWRSGTLKAYADSVKGRFTISADNSKNTAYLQMNGLKPEDTAVYYCAGVGTDYGDYLFNYWGQGTLVTVSS
notes: VHH-Fc fusion in assay
B22: TIGIT-SC104 (Fc fusion)
VHH: EVQLVESGGGLVQPGGSLRLSCAASGFTFSTYTMGWFRQAPGKEREFVAAISPSGNTYYADSVKGRFTISADNSKNTAYLQMNSLKPEDTAVYYCARWGGITFGGVYPLDYWGQGTLVTVSS
notes: VHH-Fc fusion in assay

What follows are binders tested against T1, recombinant human TIGIT (assay: SPR Carterra, average).
Description: Binding affinities of VHH-Fc proteins to recombinant human TIGIT were measured by SPR using a Carterra instrument (Table 10A). […] Average values reported from measurements from 1-2 samples.

Row | Kd | koff | kon | Binder
1 | 13 nM | 8.53e-05 s⁻¹ | 6540 M⁻¹ s⁻¹ | B1
2 | 19.6 nM | 0.00343 s⁻¹ | 207000 M⁻¹ s⁻¹ | B2
3 | 17.7 nM | 0.00175 s⁻¹ | 101000 M⁻¹ s⁻¹ | B3
4 | 18 nM | 0.00402 s⁻¹ | 224000 M⁻¹ s⁻¹ | B4
5 | 15.3 nM | 0.00233 s⁻¹ | 169000 M⁻¹ s⁻¹ | B5
6 | 16.6 nM | 0.00243 s⁻¹ | 147000 M⁻¹ s⁻¹ | B6
7 | 15.1 nM | 0.00183 s⁻¹ | 122000 M⁻¹ s⁻¹ | B7
8 | 73.4 nM | 0.00421 s⁻¹ | 67800 M⁻¹ s⁻¹ | B8
9 | 19.2 nM | 0.0118 s⁻¹ | 631000 M⁻¹ s⁻¹ | B9
10 | 16.3 nM | 0.00225 s⁻¹ | 141000 M⁻¹ s⁻¹ | B10
11 | 19.7 nM | 0.00367 s⁻¹ | 196000 M⁻¹ s⁻¹ | B11
12 | 18.6 nM | 0.013 s⁻¹ | 871000 M⁻¹ s⁻¹ | B12
13 | 32.8 nM | 0.0164 s⁻¹ | 501000 M⁻¹ s⁻¹ | B13
14 | 12.7 nM | 0.014 s⁻¹ | 1.11e+06 M⁻¹ s⁻¹ | B14
15 | 14.4 nM | 0.00102 s⁻¹ | 129000 M⁻¹ s⁻¹ | B15
16 | 14.6 nM | 0.000753 s⁻¹ | 156000 M⁻¹ s⁻¹ | B16
17 | 16.8 nM | 0.00479 s⁻¹ | 285000 M⁻¹ s⁻¹ | B17
18 | 17.7 nM | 0.00118 s⁻¹ | 70300 M⁻¹ s⁻¹ | B18
19 | 17.1 nM | 0.00126 s⁻¹ | 74100 M⁻¹ s⁻¹ | B19
20 | 36.4 nM | 0.00285 s⁻¹ | 78400 M⁻¹ s⁻¹ | B20
21 | 15.6 nM | 0.0157 s⁻¹ | 1e+06 M⁻¹ s⁻¹ | B21
22 | 15.2 nM | 0.00375 s⁻¹ | 247000 M⁻¹ s⁻¹ | B22
